Results on 34 molecules are retold here after USRE47150 (Bayer, dated 2018).

The labels stand for the following.
T1: human tissue factor pathway inhibitor (TFPI) (human, UniProt P10646 29-304, limits assumed)
T1 construct: bought; also called hTFPI; human TFPI
T1 sequence (looked up): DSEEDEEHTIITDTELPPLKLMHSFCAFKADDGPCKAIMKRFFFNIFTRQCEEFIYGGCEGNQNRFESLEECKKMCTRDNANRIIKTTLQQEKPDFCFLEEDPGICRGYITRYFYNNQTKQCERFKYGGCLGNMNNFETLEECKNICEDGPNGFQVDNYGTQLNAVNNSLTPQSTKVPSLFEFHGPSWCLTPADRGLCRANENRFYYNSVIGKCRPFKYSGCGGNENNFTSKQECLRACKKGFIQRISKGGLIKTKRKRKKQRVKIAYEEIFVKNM

T2: mouse tissue factor pathway inhibitor (TFPI) (mouse, UniProt O54819 29-289, limits assumed)
T2 construct: bought; also called mTFPI; murine TFPI
T2 sequence (looked up): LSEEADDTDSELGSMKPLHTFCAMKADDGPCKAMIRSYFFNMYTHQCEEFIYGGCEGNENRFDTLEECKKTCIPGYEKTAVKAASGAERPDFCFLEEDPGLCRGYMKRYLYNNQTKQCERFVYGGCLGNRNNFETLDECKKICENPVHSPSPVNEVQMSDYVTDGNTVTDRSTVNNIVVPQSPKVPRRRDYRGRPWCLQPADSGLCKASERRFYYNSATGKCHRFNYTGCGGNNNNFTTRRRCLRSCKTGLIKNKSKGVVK

B1: 2A8 HC S31V+S35D+I51D+K99V/LC Y48F+D91K (Fab, V domains shown)
VH: QVQLVESGGGLVQPGGSLRLSCAASGFTFRVYGMDWVRQAPGKGLEWVSSDRGSSSSTYYADSVKGRFTISRDNSKNTLYLQMNSLRAEDTAVYYCARVYRYWFDYWGQGTLVTVSS
VL: DIELTQPPSVSVAPGQTARISCSGDNLRNYYAHWYQQKPGQAPVVVIFYDNNRPSGIPERFSGSNSGNTATLTISGTQAEDEADYYCQSWKDGVPVFGGGTKLTVLG
B2: 2A8 HC S35D+K99L/LC Y48F+D91L+P95V+V96W (Fab, V domains shown)
VH: B1 VH with V31S, D51I, V99L
VL: B1 VL with K91L, P95V, V96W
B3: 2A8 HC S35D+K99L/LC Y48F+S89A+D91L+V96W (Fab, V domains shown)
VH: B1 VH with V31S, D51I, V99L
VL: B1 VL with S89A, K91L, V96W
B4: 2A8 HC S35D+S55R+K99L/LC H33Y+Y48F+N51V+D91W (Fab, V domains shown)
VH: B1 VH with V31S, D51I, S55R, V99L
VL: B1 VL with H33Y, N51V, K91W
B5: 2A8 HC S31V+S35D+S54F/LC Y48F+D91L+V96W (Fab, V domains shown)
VH: B1 VH with D51I, S54F, V99K
VL: B1 VL with K91L, V96W
B6: 2A8 HC S31V+S50A+I51D+S55R+K99V/LC Y48F+D91L+V96W (Fab, V domains shown)
VH: B1 VH with D35S, S50A, S55R
VL: B1 VL with K91L, V96W
B7: 2A8 HC S31V+S35L+I51D+S54F+K99V/LC N51V+D91K (Fab, V domains shown)
VH: B1 VH with D35L, S54F
VL: B1 VL with F48Y, N51V
B8: 2A8 HC S35D+S50A+K99L/LC Y48F+D91L+V96W (Fab, V domains shown)
VH: B1 VH with V31S, S50A, D51I, V99L
VL: B1 VL with K91L, V96W
B9: 2A8 HC S31V+S54F+K99L/LC N51V (Fab, V domains shown)
VH: B1 VH with D35S, D51I, S54F, V99L
VL: B1 VL with F48Y, N51V, K91D
B10: 2A8 HC S35D+K99L/LC Y48F+D91L+G93S+V96W (Fab, V domains shown)
VH: B1 VH with V31S, D51I, V99L
VL: B1 VL with K91L, G93S, V96W
B11: 2A8 HC S35D+K99L/LC D91L+V96W (Fab, V domains shown)
VH: B1 VH with V31S, D51I, V99L
VL: B1 VL with F48Y, K91L, V96W
B12: 2A8 HC S35D+S55R+K99L/LC Y48F+N51V+D91W+D92S (Fab, V domains shown)
VH: B1 VH with V31S, D51I, S55R, V99L
VL: B1 VL with N51V, K91W, D92S
B13: 2A8 HC S35D+K99L/LC unchanged (Fab, V domains shown)
VH: B1 VH with V31S, D51I, V99L
VL: B1 VL with F48Y, K91D
B14: 2A8 HC S35D+S54F+S55R+K99L/LC D91L+V96W (Fab, V domains shown)
VH: B1 VH with V31S, D51I, S54F, S55R, V99L
VL: B1 VL with F48Y, K91L, V96W
B15: 2A8 HC S35D+R52S+S55R+K99L/LC Y48F+N51V+D91W (Fab, V domains shown)
VH: B1 VH with V31S, D51I, R52S, S55R, V99L
VL: B1 VL with N51V, K91W
B16: 2A8 HC S35D+S55R+K99L/LC S21T+Y48F+N51V+D91W (Fab, V domains shown)
VH: B1 VH with V31S, D51I, S55R, V99L
VL: B1 VL with S21T, N51V, K91W
B17: 2A8 HC S35D+S55R+K99L/LC N26A+Y48F+N51V+D91W (Fab, V domains shown)
VH: B1 VH with V31S, D51I, S55R, V99L
VL: B1 VL with N26A, N51V, K91W
B18: 2A8 HC S31V+S35L+I51E+S54F+K99V/LC N51V+D91K (Fab, V domains shown)
VH: B1 VH with D35L, D51E, S54F
VL: B1 VL with F48Y, N51V
B19: 2A8 HC S35D+K99L/LC Y48F+D91L+V94T+V96W (Fab, V domains shown)
VH: B1 VH with V31S, D51I, V99L
VL: B1 VL with K91L, V94T, V96W
B20: 2A8 HC S31V+S35D/LC Y48F+N51V (Fab, V domains shown)
VH: B1 VH with D51I, V99K
VL: B1 VL with N51V, K91D
B21: 2A8 HC S35D+I51D+S55R+K99V/LC Y48F+N51V (Fab, V domains shown)
VH: B1 VH with V31S, S55R
VL: B1 VL with N51V, K91D
B22: 2A8 HC S35D+S55R+K99L/LC R28P+Y48F+N51V+D91W (Fab, V domains shown)
VH: B1 VH with V31S, D51I, S55R, V99L
VL: B1 VL with R28P, N51V, K91W
B23: 2A8 HC S35D+I51D+K99L/LC Y48F+D91W (Fab, V domains shown)
VH: B1 VH with V31S, V99L
VL: B1 VL with K91W
B24: 2A8 HC S35D+S55R+K99L/LC A13S+Y48F+N51V+D91W (Fab, V domains shown)
VH: B1 VH with V31S, D51I, S55R, V99L
VL: B1 VL with A13S, N51V, K91W
B25: 2A8 HC S35D+S50A+S55R+K99L/LC Y48F+N51V+D91W (Fab, V domains shown)
VH: B1 VH with V31S, S50A, D51I, S55R, V99L
VL: B1 VL with N51V, K91W
B26: 2A8 HC S35D+S55R+K99L/LC N29K+Y48F+N51V+D91W (Fab, V domains shown)
VH: B1 VH with V31S, D51I, S55R, V99L
VL: B1 VL with N29K, N51V, K91W
B27: 2A8 HC S35D+S55R+K99L/LC D1S+Y48F+N51V+D91W (Fab, V domains shown)
VH: B1 VH with V31S, D51I, S55R, V99L
VL: B1 VL with D1S, N51V, K91W
B28: 2A8 HC S35D+R52S+K99L/LC Y48F+D91L+V96W (Fab, V domains shown)
VH: B1 VH with V31S, D51I, R52S, V99L
VL: B1 VL with K91L, V96W
B29: 2A8 HC S35D+K99L/LC Y48F+D91L+D92S+V96W (Fab, V domains shown)
VH: B1 VH with V31S, D51I, V99L
VL: B1 VL with K91L, D92S, V96W
B30: 2A8 HC S35D+I51E+S55R+K99L/LC Y48F+N51V+D91L+V96W (Fab, V domains shown)
VH: B1 VH with V31S, D51E, S55R, V99L
VL: B1 VL with N51V, K91L, V96W
B31: 2A8 HC S35D+S55G+K99L/LC Y48F+D91L+V96W (Fab, V domains shown)
VH: B1 VH with V31S, D51I, S55G, V99L
VL: B1 VL with K91L, V96W
B32: 2A8 HC S35D+K99L/LC Y48F+N51S+D91L+V96W (Fab, V domains shown)
VH: B1 VH with V31S, D51I, V99L
VL: B1 VL with N51S, K91L, V96W
B33: 2A8 HC S31V+S35D+S55R/LC Y48F+N51V+D91L+V96W (Fab, V domains shown)
VH: B1 VH with D51I, S55R, V99K
VL: B1 VL with N51V, K91L, V96W
B34: 2A8 HC S35D+S55R+K99L/LC I2Y+Y48F+N51V+D91W (Fab, V domains shown)
VH: B1 VH with V31S, D51I, S55R, V99L
VL: B1 VL with I2Y, N51V, K91W

Where a chain is given by its changes, count along the chain named. Names and notes keep the numbering of the source.

The first assay has as its target T1, human tissue factor pathway inhibitor …. The assay can be described thus: competitive ELISA.
In turn, B1 returned a variant/HC_K99L of 0.6 ratio.

B2 came in with a variant/HC_K99L of 10.2 ratio.

In the case of B3, the variant/HC_K99L came to 4.4 ratio.

Consider B4, for which the variant/HC_K99L worked out at 14 ratio.

Turning to B5, the variant/HC_K99L is 5.4 ratio.

B6 had a variant/HC_K99L of 16.6 ratio.

For B7, the variant/HC_K99L was found to be 8.6 ratio.

Take B8: the variant/HC_K99L turned out to be 4 ratio.

Molecule B9 yielded a variant/HC_K99L of 16.3 ratio.

Regarding B10, the variant/HC_K99L came out at 14.2 ratio.

For B11, the variant/HC_K99L turned out to be 7.1 ratio.

As for B12, the variant/HC_K99L stood at 23.9 ratio.

B13 had a variant/HC_K99L of 3.9 ratio.

The molecule B14 gave a variant/HC_K99L of 14.9 ratio.

The molecule B15 registered a variant/HC_K99L of 10.1 ratio.

For the molecule B16, the variant/HC_K99L was 19.5 ratio.

As to B17, the variant/HC_K99L is 4.1 ratio.

Molecule B18 gave a variant/HC_K99L of 4.9 ratio.

B19 registered a variant/HC_K99L of 18.6 ratio.

As to B20, the variant/HC_K99L is 7.5 ratio.

With B21, the variant/HC_K99L was 8 ratio.

Consider B22, for which the variant/HC_K99L came out at 22 ratio.

B23 returned a variant/HC_K99L of 0.8 ratio.

Consider B24, for which the variant/HC_K99L was found to be 20.1 ratio.

B25 displayed a variant/HC_K99L of 10.9 ratio.

The molecule B26 returned a variant/HC_K99L of 20 ratio.

Molecule B27 had a variant/HC_K99L of 21.9 ratio.

In turn, B28 came in with a variant/HC_K99L of 3.9 ratio.

The molecule B29 displayed a variant/HC_K99L of 20.7 ratio.

In turn, B30 registered a variant/HC_K99L of 10.4 ratio.

In turn, B31 came in with a variant/HC_K99L of 18.1 ratio.

Regarding B32, the variant/HC_K99L is 19.9 ratio.

For B33, the variant/HC_K99L came to 8.7 ratio.

With B34, the variant/HC_K99L amounted to 18.7 ratio.

Another assay addresses T2, mouse tissue factor pathway inhibitor …. The assay is described as follows: competitive ELISA. For orientation: ELISA stands for enzyme-linked immunosorbent assay.
In the case of B1, the variant/HC_K99L came to 0.1 ratio.

Consider B2, for which the variant/HC_K99L worked out at 13.6 ratio.

Take B3: the variant/HC_K99L was determined as 6.1 ratio.

B4 gave a variant/HC_K99L of 11.2 ratio.

B5: the variant/HC_K99L is 4.2 ratio.

The molecule B6 came in with a variant/HC_K99L of 9.3 ratio.

In turn, B7 returned a variant/HC_K99L of 8.2 ratio.

B8 returned a variant/HC_K99L of 4.6 ratio.

In turn, B9 showed a variant/HC_K99L of 15.7 ratio.

As to B10, the variant/HC_K99L came to 15.6 ratio.

As for B11, the variant/HC_K99L amounted to 5.4 ratio.

Molecule B12 yielded a variant/HC_K99L of 22.8 ratio.

B13 had a variant/HC_K99L of 4.5 ratio.

Take B14: the variant/HC_K99L was found to be 12.1 ratio.

Take B15: the variant/HC_K99L stood at 7.9 ratio.

Molecule B16 came in with a variant/HC_K99L of 18.8 ratio.

In turn, B17 displayed a variant/HC_K99L of 4.1 ratio.

B18 came in with a variant/HC_K99L of 3.9 ratio.

As to B19, the variant/HC_K99L came out at 19.3 ratio.

B20 returned a variant/HC_K99L of 7.2 ratio.

B21 came in with a variant/HC_K99L of 2.7 ratio.

Molecule B22 came in with a variant/HC_K99L of 23.2 ratio.

Take B23: the variant/HC_K99L is 0.2 ratio.

As for B24, the variant/HC_K99L was found to be 19.9 ratio.

Take B25: the variant/HC_K99L stood at 12.6 ratio.

Turning to B26, the variant/HC_K99L stood at 18.9 ratio.

Turning to B27, the variant/HC_K99L is 22 ratio.

The molecule B28 showed a variant/HC_K99L of 3 ratio.

B29 returned a variant/HC_K99L of 20.5 ratio.

B30 yielded a variant/HC_K99L of 8 ratio.

In turn, B31 had a variant/HC_K99L of 18.2 ratio.

Turning to B32, the variant/HC_K99L came to 20.3 ratio.

Molecule B33 displayed a variant/HC_K99L of 8.2 ratio.

Regarding B34, the variant/HC_K99L came out at 19 ratio.
